Experiment [1] concerns the target FcγRIIIa (CD16) (V158) (Homo sapiens) (UniProt P08637). In words: Lumit FcγRIIIa (V158) Binding Immunoassay (Promega), left panel FcγRIIIa (CD16) (V158), competition with Tracer-LgBiT, n=1.
The next experiment deals with FcγRIIa (CD32) (H131). In words: Lumit FcγRIIa (H131) Binding Immunoassay (Promega), left panel FcγRIIa (CD32) (H131), competition with Tracer-LgBiT, n=1.
The target of experiment [2] is recombinant human FcRn (FcγRn-SmBiT, Lumit assay) (human) (UniProt P55899). Description: Lumit FcRn Binding Immunoassay (Promega), competition with Tracer-LgBiT for FcRn-SmBiT, n=1.
Sequence of recombinant human FcRn (FcγRn-SmBiT, Lumit assay) (human) (P55899 24-297 limits assumed, chain 1 of 2): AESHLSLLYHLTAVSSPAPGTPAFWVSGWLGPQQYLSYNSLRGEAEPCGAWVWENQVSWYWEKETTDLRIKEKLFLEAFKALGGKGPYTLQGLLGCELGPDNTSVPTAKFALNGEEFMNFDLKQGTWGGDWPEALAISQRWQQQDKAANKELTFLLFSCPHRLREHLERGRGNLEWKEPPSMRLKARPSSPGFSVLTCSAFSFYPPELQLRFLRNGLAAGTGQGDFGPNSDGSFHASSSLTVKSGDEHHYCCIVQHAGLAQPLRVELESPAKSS
Sequence of recombinant human FcRn (FcγRn-SmBiT, Lumit assay) (human) (chain, as listed by the source limits assumed, chain 2 of 2): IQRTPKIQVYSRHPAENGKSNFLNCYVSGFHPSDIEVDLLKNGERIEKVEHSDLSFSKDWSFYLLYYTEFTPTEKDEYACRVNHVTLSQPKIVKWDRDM

Sequence of FcγRIIIa (CD16) (V158) (Homo sapiens) (P08637 17-208 F176V limits assumed): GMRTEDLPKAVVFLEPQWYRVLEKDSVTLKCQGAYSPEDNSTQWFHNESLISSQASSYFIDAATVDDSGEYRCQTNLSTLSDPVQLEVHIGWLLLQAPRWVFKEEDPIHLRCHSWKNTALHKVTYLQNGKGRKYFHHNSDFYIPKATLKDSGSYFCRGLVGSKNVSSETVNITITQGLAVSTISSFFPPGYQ
Sequence of FcγRIIa (CD32) (H131) (chain, as listed by the source limits assumed): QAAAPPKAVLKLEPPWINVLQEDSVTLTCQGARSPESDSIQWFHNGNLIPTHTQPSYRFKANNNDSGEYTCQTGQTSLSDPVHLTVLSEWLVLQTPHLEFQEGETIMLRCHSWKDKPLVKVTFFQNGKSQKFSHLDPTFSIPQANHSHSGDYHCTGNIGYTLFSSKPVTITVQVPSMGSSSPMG

As to “IgG1 positive control (standard of the Lumit FcγR Binding Immunoassays) (antibody)”, the IC50 (read off the curve) in experiment [1] was found to be 2 µg/mL; in the experiment with FcγRIIa (CD32) (H131), 1 µg/mL; in experiment [2] it was 2 µg/mL.
